To fix the notation:
B1: Tumor protein 63 (Homo sapiens), Q9H3D4-1 (parent)
chain: MNFETSRCATLQYCPDPYIQRFVETPAHFSWKESYYRSTMSQSTQTNEFLSPEVFQHIWDFLEQPICSVQPIDLNFVDEPSEDGATNKIEISMDCIRMQDSDLSDPMWPQYTNLGLLNSMDQQIQNGSSSTSPYNTDHAQNSVTAPSPYAQPSSTFDALSPSPAIPSNTDYPGPHSFDVSFQQSSTAKSATWTYSTELKKLYCQIAKTCPIQIKVMTPPPQGAVIRAMPVYKKAEHVTEVVKRCPNHELSREFNEGQIAPPSHLIRVEGNSHAQYVEDPITGRQSVLVPYEPPQVGTEFTTVLYNFMCNSSCVGGMNRRPILIIVTLETRDGQVLGRRCFEARICACPGRDRKADEDSIRKQQVSDSTKNGDGTKRPFRQNTHGIQMTSIKKRRSPDDELLYLPVRGRETYEMLLKIKESLELMQYLPQHTIETYRQQQQQQHQHLLQKQTSIQSPSSYGNSSPPLNKMNSMNKLPSVSQLINPQQRNALTPTTIPDGMGANIPMMGTHMPMAGDMNGLSPTQALPPPLSMPSTSHCTPPPPYPTDCSIVSFLARLGCSSCLDYFTTQGLTTIYQIEHYSMDDLASLKIPEQFRHAIWKGILDHRQLHEFSSPSHLLRTPSSASTVSVGSSETRGERVIDAVRFTLRQTISFPPRDEWNDFNFDMDARRNKQQRIKEEGE
B2: Tumor protein 63 (Homo sapiens), Q9H3D4 (parent)
chain: B1 chain
partner: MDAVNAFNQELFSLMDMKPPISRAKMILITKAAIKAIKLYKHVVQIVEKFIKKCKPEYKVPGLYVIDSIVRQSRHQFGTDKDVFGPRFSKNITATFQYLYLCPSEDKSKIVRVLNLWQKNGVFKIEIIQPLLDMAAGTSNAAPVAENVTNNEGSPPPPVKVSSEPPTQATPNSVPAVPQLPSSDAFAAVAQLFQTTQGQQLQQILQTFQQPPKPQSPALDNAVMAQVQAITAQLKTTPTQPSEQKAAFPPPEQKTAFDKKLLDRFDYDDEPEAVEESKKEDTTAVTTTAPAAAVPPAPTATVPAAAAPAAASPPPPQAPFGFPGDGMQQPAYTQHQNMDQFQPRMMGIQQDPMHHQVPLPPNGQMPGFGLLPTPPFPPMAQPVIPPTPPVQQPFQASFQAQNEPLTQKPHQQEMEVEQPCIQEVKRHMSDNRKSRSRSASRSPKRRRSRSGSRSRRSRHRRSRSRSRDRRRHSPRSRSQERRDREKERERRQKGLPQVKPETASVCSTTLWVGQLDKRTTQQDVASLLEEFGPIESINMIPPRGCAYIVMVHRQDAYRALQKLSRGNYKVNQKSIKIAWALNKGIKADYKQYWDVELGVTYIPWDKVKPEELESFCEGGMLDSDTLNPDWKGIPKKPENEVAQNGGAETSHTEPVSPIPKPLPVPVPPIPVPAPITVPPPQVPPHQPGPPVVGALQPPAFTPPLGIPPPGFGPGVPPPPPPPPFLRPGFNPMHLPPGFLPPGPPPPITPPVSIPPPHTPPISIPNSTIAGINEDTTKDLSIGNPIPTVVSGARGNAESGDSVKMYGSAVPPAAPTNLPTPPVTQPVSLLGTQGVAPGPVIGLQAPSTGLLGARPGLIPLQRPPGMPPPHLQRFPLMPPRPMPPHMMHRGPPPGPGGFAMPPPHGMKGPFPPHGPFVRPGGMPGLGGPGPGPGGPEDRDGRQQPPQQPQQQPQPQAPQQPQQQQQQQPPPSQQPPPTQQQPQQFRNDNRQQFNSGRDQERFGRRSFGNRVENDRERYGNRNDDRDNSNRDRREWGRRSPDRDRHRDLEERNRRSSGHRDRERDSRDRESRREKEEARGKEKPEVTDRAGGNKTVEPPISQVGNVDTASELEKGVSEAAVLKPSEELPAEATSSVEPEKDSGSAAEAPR
B3: Tumor protein 63 (Homo sapiens), Q9H3D4-2 (parent)
chain: MLYLENNAQTQFSEPQYTNLGLLNSMDQQIQNGSSSTSPYNTDHAQNSVTAPSPYAQPSSTFDALSPSPAIPSNTDYPGPHSFDVSFQQSSTAKSATWTYSTELKKLYCQIAKTCPIQIKVMTPPPQGAVIRAMPVYKKAEHVTEVVKRCPNHELSREFNEGQIAPPSHLIRVEGNSHAQYVEDPITGRQSVLVPYEPPQVGTEFTTVLYNFMCNSSCVGGMNRRPILIIVTLETRDGQVLGRRCFEARICACPGRDRKADEDSIRKQQVSDSTKNGDGTKRPFRQNTHGIQMTSIKKRRSPDDELLYLPVRGRETYEMLLKIKESLELMQYLPQHTIETYRQQQQQQHQHLLQKQTSIQSPSSYGNSSPPLNKMNSMNKLPSVSQLINPQQRNALTPTTIPDGMGANIPMMGTHMPMAGDMNGLSPTQALPPPLSMPSTSHCTPPPPYPTDCSIVSFLARLGCSSCLDYFTTQGLTTIYQIEHYSMDDLASLKIPEQFRHAIWKGILDHRQLHEFSSPSHLLRTPSSASTVSVGSSETRGERVIDAVRFTLRQTISFPPRDEWNDFNFDMDARRNKQQRIKEEGE

In the first experiment the parent is B1. The note with it: with roaa_human HNRNPAB.
Target sequence in this assay (Q99729 whole entry): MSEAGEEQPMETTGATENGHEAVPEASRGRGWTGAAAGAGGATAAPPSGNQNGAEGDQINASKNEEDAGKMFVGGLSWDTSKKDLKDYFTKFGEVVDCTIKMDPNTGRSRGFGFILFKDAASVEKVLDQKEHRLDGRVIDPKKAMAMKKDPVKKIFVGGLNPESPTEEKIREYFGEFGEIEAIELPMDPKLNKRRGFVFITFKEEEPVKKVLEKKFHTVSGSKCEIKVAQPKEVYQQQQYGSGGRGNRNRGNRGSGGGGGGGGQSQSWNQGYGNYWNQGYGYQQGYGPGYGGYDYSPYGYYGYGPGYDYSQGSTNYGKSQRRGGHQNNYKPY
Consider G569V, for which the “effect of a mutation on the interaction” value is recorded as “disrupting interaction strength”.
On the same count and under the same terms, next, L553F: “disrupting interaction strength”.
Still for that read-out and setting: under C561V stands “disrupting interaction strength”.
On the same count and under the same terms, under Q575L stands “disrupting interaction strength”.
As to I576T, the “effect of a mutation on the interaction” value was “disrupting interaction strength”.

In another experiment the parent is B1. The note with it: with rack1_human RACK1, P63244.
On to L553F, for which the “effect of a mutation on the interaction” value was “with no effect”.

A further experiment covers variants of B1. The note with it: with roaa_human HNRNPAB. This is another data set of the same source.
Target sequence in this assay (Q99729 whole entry): as above
As to L553F, the “effect of a mutation on the interaction” value was “disrupting interaction strength”.

The variants in another experiment derive from B2. Conditions: with scaf4_human SCAF4, O95104.
As for L553F, the “effect of a mutation on the interaction” value is listed as “disrupting interaction strength”.

A further experiment covers variants of B3. Conditions: with roaa_human HNRNPAB.
Target sequence in this assay (Q99729 whole entry): as above
As for MLYLENNAQTQFSEPQYTNLGLLNSMDQQIQNGSSSTSPYNTDHAQNSVTAPSPYAQPSSTFDALSPSPAIPSNTDYPGPHSFDVSFQQSSTAKSATWTYSTELKKLYCQIAKTCPIQIKVMTPPPQGAVIRAMPVYKKAEHVTEVVKRCPNHELSREFNEGQIAPPSHLIRVEGNSHAQYVEDPITGRQSVLVPYEPPQVGTEFTTVLYNFMCNSSCVGGMNRRPILIIVTLETRDGQVLGRRCFEARICACPGRDRKADEDSIRKQQVSDSTKNGDGTKRPFRQNTHGIQMTSIKKRRSPDDELLYLPVRGRETYEMLLKIKESLELMQYLPQHTIETYRQQQQQQHQHLLQKQTSIQSPSSYGNSSPPLNKMNSMNKLPSVSQLINPQQRNALTPTTIPDGMGANIPMMGTHMPMAGDMNGLSPTQALPPPLSMPSTSHCTPPPPYPTDCSIVSFLARLGCSSVLDYFTTQGLTTIYQIEHYSMDDLASLKIPEQFRHAIWKGILDHRQLHEFSSPSHLLRTPSSASTVSVGSSETRGERVIDAVRFTLRQTISFPPRDEWNDFNFDMDARRNKQQRIKEEGE [C467V], the “effect of a mutation on the interaction” value is reported as “disrupting interaction strength”.
Still for that read-out and setting: under MLYLENNAQTQFSEPQYTNLGLLNSMDQQIQNGSSSTSPYNTDHAQNSVTAPSPYAQPSSTFDALSPSPAIPSNTDYPGPHSFDVSFQQSSTAKSATWTYSTELKKLYCQIAKTCPIQIKVMTPPPQGAVIRAMPVYKKAEHVTEVVKRCPNHELSREFNEGQIAPPSHLIRVEGNSHAQYVEDPITGRQSVLVPYEPPQVGTEFTTVLYNFMCNSSCVGGMNRRPILIIVTLETRDGQVLGRRCFEARICACPGRDRKADEDSIRKQQVSDSTKNGDGTKRPFRQNTHGIQMTSIKKRRSPDDELLYLPVRGRETYEMLLKIKESLELMQYLPQHTIETYRQQQQQQHQHLLQKQTSIQSPSSYGNSSPPLNKMNSMNKLPSVSQLINPQQRNALTPTTIPDGMGANIPMMGTHMPMAGDMNGLSPTQALPPPLSMPSTSHCTPPPPYPTDCSIVSFLARLGCSSCLDYFTTQGLTTIYQTEHYSMDDLASLKIPEQFRHAIWKGILDHRQLHEFSSPSHLLRTPSSASTVSVGSSETRGERVIDAVRFTLRQTISFPPRDEWNDFNFDMDARRNKQQRIKEEGE [I482T] stands “disrupting interaction strength”; under MLYLENNAQTQFSEPQYTNLGLLNSMDQQIQNGSSSTSPYNTDHAQNSVTAPSPYAQPSSTFDALSPSPAIPSNTDYPGPHSFDVSFQQSSTAKSATWTYSTELKKLYCQIAKTCPIQIKVMTPPPQGAVIRAMPVYKKAEHVTEVVKRCPNHELSREFNEGQIAPPSHLIRVEGNSHAQYVEDPITGRQSVLVPYEPPQVGTEFTTVLYNFMCNSSCVGGMNRRPILIIVTLETRDGQVLGRRCFEARICACPGRDRKADEDSIRKQQVSDSTKNGDGTKRPFRQNTHGIQMTSIKKRRSPDDELLYLPVRGRETYEMLLKIKESLELMQYLPQHTIETYRQQQQQQHQHLLQKQTSIQSPSSYGNSSPPLNKMNSMNKLPSVSQLINPQQRNALTPTTIPDGMGANIPMMGTHMPMAGDMNGLSPTQALPPPLSMPSTSHCTPPPPYPTDCSIVSFLARLGCSSCLDYFTTQVLTTIYQIEHYSMDDLASLKIPEQFRHAIWKGILDHRQLHEFSSPSHLLRTPSSASTVSVGSSETRGERVIDAVRFTLRQTISFPPRDEWNDFNFDMDARRNKQQRIKEEGE [G475V], “disrupting interaction strength”.
Same read-out and setting: next, MLYLENNAQTQFSEPQYTNLGLLNSMDQQIQNGSSSTSPYNTDHAQNSVTAPSPYAQPSSTFDALSPSPAIPSNTDYPGPHSFDVSFQQSSTAKSATWTYSTELKKLYCQIAKTCPIQIKVMTPPPQGAVIRAMPVYKKAEHVTEVVKRCPNHELSREFNEGQIAPPSHLIRVEGNSHAQYVEDPITGRQSVLVPYEPPQVGTEFTTVLYNFMCNSSCVGGMNRRPILIIVTLETRDGQVLGRRCFEARICACPGRDRKADEDSIRKQQVSDSTKNGDGTKRPFRQNTHGIQMTSIKKRRSPDDELLYLPVRGRETYEMLLKIKESLELMQYLPQHTIETYRQQQQQQHQHLLQKQTSIQSPSSYGNSSPPLNKMNSMNKLPSVSQLINPQQRNALTPTTIPDGMGANIPMMGTHMPMAGDMNGLSPTQALPPPLSMPSTSHCTPPPPYPTDCSIVSFLARLGCSSCLDYFTTQGLTTIYLIEHYSMDDLASLKIPEQFRHAIWKGILDHRQLHEFSSPSHLLRTPSSASTVSVGSSETRGERVIDAVRFTLRQTISFPPRDEWNDFNFDMDARRNKQQRIKEEGE [Q481L]: “disrupting interaction strength”.

Variants of B3 are the subject of the next experiment. Conditions: with roaa_human HNRNPAB. This is another data set of the same source.
Target sequence in this assay (Q99729 whole entry): as the sequence (Q99729 whole entry) above
Take MLYLENNAQTQFSEPQYTNLGLLNSMDQQIQNGSSSTSPYNTDHAQNSVTAPSPYAQPSSTFDALSPSPAIPSNTDYPGPHSFDVSFQQSSTAKSATWTYSTELKKLYCQIAKTCPIQIKVMTPPPQGAVIRAMPVYKKAEHVTEVVKRCPNHELSREFNEGQIAPPSHLIRVEGNSHAQYVEDPITGRQSVLVPYEPPQVGTEFTTVLYNFMCNSSCVGGMNRRPILIIVTLETRDGQVLGRRCFEARICACPGRDRKADEDSIRKQQVSDSTKNGDGTKRPFRQNTHGIQMTSIKKRRSPDDELLYLPVRGRETYEMLLKIKESLELMQYLPQHTIETYRQQQQQQHQHLLQKQTSIQSPSSYGNSSPPLNKMNSMNKLPSVSQLINPQQRNALTPTTIPDGMGANIPMMGTHMPMAGDMNGLSPTQALPPPLSMPSTSHCTPPPPYPTDCSIVSFFARLGCSSCLDYFTTQGLTTIYQIEHYSMDDLASLKIPEQFRHAIWKGILDHRQLHEFSSPSHLLRTPSSASTVSVGSSETRGERVIDAVRFTLRQTISFPPRDEWNDFNFDMDARRNKQQRIKEEGE [L459F]: the “effect of a mutation on the interaction” value was “disrupting interaction strength”.

(Values after IntAct's records for PubMed 12692135.)
